The supplement of paper PMC9170038

Tested on: K4 kissing-loop RNA reporter
Experiment: apparent KD of K4 kissing-loop reporter; higher = weaker reporter binding
Settings: Eterna round: R107
Experimental: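 RNA-MaP round R107: designed RNA switches with theophylline, tryptophan, arginine or FMN aptamers are transcribed on-chip within common flanks. They are titrated with a labelled K4 kissing-loop RNA reporter in RNA-MaP buffer (100 mM Tris pH 7.5, 80 mM KCl, 4 mM MgCl2), without ligand or with the indicated ligand. Median apparent KD per design.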

[1] = input ligand: theophylline 20 uM
[2] = input ligand: tryptophan 2.4 mM
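Further: bound reporter read as fluorescence of individual clusters on recovered sequencing chips by microscopy, with normalized cluster intensities fitted with a binding model.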

Row | Sequence | apparent KD of K4 kissing-loop reporter (input ligand: FMN 200 uM) [nM] | apparent KD of K4 kissing-loop reporter (input ligand: arginine 13.2 mM) [nM] | apparent KD of K4 kissing-loop reporter (input ligand: none) [nM] | apparent KD of K4 kissing-loop reporter [1] [nM] | apparent KD of K4 kissing-loop reporter [2] [nM]
1 | ACAGUCCCGCAUGGUGCGAACGAGAGAUGGCGAGGACCGGUACGGCCGCCACUCGAACAAGUGAUGUUUGAUAUCAUUUUUCUAC [theeternabot_sameState_KL_Trp_A_10] | 98.6 | 83.3 | 117 | 90.7 | 85.4
2 | UGUCAUUGGUCUGAUACCAGAUGAUAAUCUGGAGUGAUGUUCCAAGAACGACAAAGUCGCAUCCCUUGGCAGCAGACCGAUGACU [TheoBS 18 #SwitchBubble 13 #StaticStem] | 312 | 151 | 236 | 526 | 238
3 | GUGAAGGAGCUGCAGUGAUGUUGCAGAGACUAGGAUAUCAGGAAACUGAGAAGGAGUCAACUCCUUCACCUAGACUGCAACAUAA [[F]''-[K1]-[K2]-[F1]-[F2]-[F2]'-[F1]'-[K]'_Design3] | 99.6 | 69.7 | 67.7 | 75.7 | 134
4 | UAUAUAGUGACGGCCGCCACUAUUGUGAUGUAGUUGUUAGAGUGAUGUUUUGUUGUUUGAUUUUGUAGGACCGGGUUAUAUGUUA [rccrwzmullin] | 842 | 565 | 812 | 612 | 668
5 | UUUAUAAAGUCGGCCGCCACUGGUUUUAUUUUUGUUUAAUCUGGAUCAUAGUGAUGUUAUGAGACCAGGACCGGGACAUUUGUUA [#08 K4 Tryptophan B Exclusion] | 89.5 | 86 | 88.2 | 93.8 | 132
6 | GCUAUGGUAGGAAGGAGCGCGGACGAUAUUUAUCGAGUGAUGUUCGAUUCAUUAAUUUGAACGCAGGUAGGUCGCCUACUAUAGC [Arginine B K4 29] | 138 | 148 | 160 | 134 | 161
7 | GGGUGUAGUGCGGCCGCCACUGUGAAAGUAGAAGAAUAUAGUGAUGUUAUAUAGGAUUAAAAGAAUAGGACCGGGCAUUAGACUU [#23 K4 Tryptophan B Same State] | 214 | 236 | 284 | 248 | 182
8 | UGUACCGAGUCAGGAUAUGGUAUAGCGGAAACGCACCAGUGAUGUUGGACGCGAAAGCGAUAAAAUCCAGAAGGGACUUGGUACU [FmnBS 20 #SwitchBubble #StaticStem #DoubleMagnetSystem] | 184 | 224 | 209 | 221 | 207
9 | GACACUCGGUGAUAAUAACCGUUACGCGAUACCAGCGUAACAGUACGCCCUUGGCAGCGCAGUGAUGUUGCGUGCCGAGUGUGAA [Theo A Ex Mod of Esbiceve] | 180 | 170 | 172 | 170 | 163
10 | GUGUCCUAGUCGGCCGCCACUGGUACGAAAAUAGAAGGACGUGUGCACAUGAGUGAUGUUCAUGUCAGGACCGGGACUAGGGUGU [KL-SSTryp-B6 Brourdwalk2] | 281 | 304 | 367 | 332 | 316
11 | UUAUCUAUAUUCGAUACCAGUACCCUUUGUGUUGAUCCUUUUAUCAGUGAUGUUGAUGUGUACCCUUGGCAGCGGGUAUGGGUUU [KL-XTheo-B16] | 384 | 370 | 425 | 556 | 279
12 | UGUACCGAGGCAGGAUAUGUCGUCGAAAGACGAAAUGGAGUGAUGUUCCUUAAACUGCGAAAGCAGACAGAAGGGCCUUGGUACU [FmnBS 29 G10+C76] | 132 | 179 | 175 | 202 | 160
13 | UAAAUAAUAAAACGAGUGAUGUUCGACGAUACCAGCCUCGAUAGAGGCCCUUGGCAGCGUAUGUGAUCACUAAGCCAAGGAAUAA [#02 K4 Theophylline A Exclusion] | 164 | 175 | 167 | 196 | 132
14 | AAAUUUAAUAUAUUUAAAUAAAUAUGUGAUACCAGACAUUUAUAAGUCCCUUGGCAGCACAUUGCAGUGAUGUUGCUUAUAAUAA [JR_SSTheophyA_Sub016] | 72.7 | 80.9 | 89.7 | 145 | 76.5
15 | AUCGUUGUCUGAGGAUAUCGAUUAACUGUAGUGAUGUUACAGAAAAUUCAUAUAAUAUUUUCUAUUCGAGAAGGCAGACUACGUA [JR_ExcFMNB_Sub017] | 167 | 135 | 144 | 139 | 144
16 | UCGACAGUGAACGAUACCAGCGUCACGUGGCUGGUGGUCACAUGAGUGAUGUUCAUGUAACGCCCUUGGCAGCGUGCACGUAUCC [KL-XTheo-B9] | 234 | 206 | 220 | 199 | 199
17 | CUUAUUAUGUCGGCCGCCACUCAAUGAUAAUCCACUAAAUUGCGAUUCAGUGAUGUUGAAGUGCUGAGGACCGGGACUAUUAACA [theeternabot_sameState_KL_Trp_B_22] | 541 | 206 | 345 | 214 | 316
